# Measured values published in IntAct's records for PubMed 31515488.
# B1: U2 small nuclear ribonucleoprotein A' (Homo sapiens), P09661 (parent)
# chain: MVKLTAELIEQAAQYTNAVRDRELDLRGYKIPVIENLGATLDQFDAIDFSDNEIRKLDGFPLLRRLKTLLVNNNRICRIGEGLDQALPCLTELILTNNSLVELGDLDPLASLKSLTYLSILRNPVTNKKHYRLYVIYKVPQVRVLDFQKVKLKERQEAEKMFKGKRGAQLAKDIARRSKTFNPGAGLPTDKKKGGPSPGDVEAIKNAIANASTLAEVERLKGLLQSGQIPGRERRSGPTDDGEEEMEEDTVTNGS
# B2: "Dol-P-Man:Man(5)GlcNAc(2)-PP-Dol alpha-1,3-mannosyltransferase" (Homo sapiens), Q92685 (parent)
# chain: MAAGLRKRGRSGSAAQAEGLCKQWLQRAWQERRLLLREPRYTLLVAACLCLAEVGITFWVIHRVAYTEIDWKAYMAEVEGVINGTYDYTQLQGDTGPLVYPAGFVYIFMGLYYATSRGTDIRMAQNIFAVLYLATLLLVFLIYHQTCKVPPFVFFFMCCASYRVHSIFVLRLFNDPVAMVLLFLSINLLLAQRWGWGCCFFSLAVSVKMNVLLFAPGLLFLLLTQFGFRGALPKLGICAGLQVVLGLPFLLENPSGYLSRSFDLGRQFLFHWTVNWRFLPEALFLHRAFHLALLTAHLTLLLLFALCRWHRTGESILSLLRDPSKRKVPPQPLTPNQIVSTLFTSNFIGICFSRSLHYQFYVWYFHTLPYLLWAMPARWLTHLLRLLVLGLIELSWNTYPSTSCSSAALHICHAVILLQLWLGPQPFPKSTQHSKKAH
# partner: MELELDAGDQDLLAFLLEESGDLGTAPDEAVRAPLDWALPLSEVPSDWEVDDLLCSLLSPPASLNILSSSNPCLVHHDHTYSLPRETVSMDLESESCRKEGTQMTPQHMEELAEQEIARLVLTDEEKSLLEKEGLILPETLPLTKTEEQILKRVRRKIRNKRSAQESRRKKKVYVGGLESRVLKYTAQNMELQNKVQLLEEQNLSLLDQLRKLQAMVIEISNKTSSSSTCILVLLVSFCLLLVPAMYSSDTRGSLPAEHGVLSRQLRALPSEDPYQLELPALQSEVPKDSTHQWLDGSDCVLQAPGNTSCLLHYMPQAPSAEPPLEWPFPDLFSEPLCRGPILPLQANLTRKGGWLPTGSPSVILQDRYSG
# B3: Leukocyte receptor cluster member 1 (Homo sapiens), Q96BZ8 (parent)
# chain: MNILPKKSWHVRNKDNVARVRRDEAQAREEEKERERRVLLAQQEARTEFLRKKARHQNSLPELEAAEAGAPGSGPVDLFRELLEEGKGVIRGNKEYKEEKRQEKERQEKALGILTYLGQSAAEAQTQPPWYQLPPGRGGPPPGPAPDEKIKSRLDPLREMQKHLGKKRQHGGDEGSRSRKEKEGSEKQRPKEPPSLDQLRAERLRREAAERSRAEALLARVQGRALQEGQPEEDETDDRRRRYNSQFNPQLARRPRQQDPHLTH
# B4: STAM-binding protein (Homo sapiens), O95630 (parent)
# chain: MSDHGDVSLPPEDRVRALSQLGSAVEVNEDIPPRRYFRSGVEIIRMASIYSEEGNIEHAFILYNKYITLFIEKLPKHRDYKSAVIPEKKDTVKKLKEIAFPKAEELKAELLKRYTKEYTEYNEEKKKEAEELARNMAIQQELEKEKQRVAQQKQQQLEQEQFHAFEEMIRNQELEKERLKIVQEFGKVDPGLGGPLVPDLEKPSLDVFPTLTVSSIQPSDCHTTVRPAKPPVVDRSLKPGALSNSESIPTIDGLRHVVVPGRLCPQFLQLASANTARGVETCGILCGKLMRNEFTITHVLIPKQSAGSDYCNTENEEELFLIQDQQGLITLGWIHTHPTQTAFLSSVDLHTHCSYQMMLPESVAIVCSPKFQETGFFKLTDHGLEEISSCRQKGFHPHSKDPPLFCSCSHVTVVDRAVTITDLR
# Variants of: B1
# Conditions: with ru2b_human SNRPB2, P08579
# Sequence of ru2b_human SNRPB2, P08579 (P08579 whole entry): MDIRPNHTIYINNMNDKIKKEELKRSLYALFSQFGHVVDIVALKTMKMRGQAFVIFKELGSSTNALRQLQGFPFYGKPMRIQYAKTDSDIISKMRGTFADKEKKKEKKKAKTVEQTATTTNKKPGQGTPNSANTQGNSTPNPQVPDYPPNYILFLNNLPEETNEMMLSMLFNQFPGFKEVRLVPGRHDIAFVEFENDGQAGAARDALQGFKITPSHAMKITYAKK
row,effect of a mutation on the interaction,Variant
1,with no effect,MVKLTAELIEQAAQYTNAVRDRELDLRGYKISVIENLGATLDQFDAIDFSDNEIRKLDGFPLLRRLKTLLVNNNRICRIGEGLDQALPCLTELILTNNSLVELGDLDPLASLKSLTYLSILRNPVTNKKHYRLYVIYKVPQVRVLDFQKVKLKERQEAEKMFKGKRGAQLAKDIARRSKTFNPGAGLPTDKKKGGPSPGDVEAIKNAIANASTLAEVERLKGLLQSGQIPGRERRSGPTDDGEEEMEEDTVTNGS [P32S]
2,with no effect,MVKLTAELIEQAAQYTNAVRDRELDLRGYKIPVIENLGATLDQFDAIDFSDNEIRKLDGFPLLRRLKTLLVNNNRICRIGEGLDQALPCLTELILTNNNLVELGDLDPLASLKSLTYLSILRNPVTNKKHYRLYVIYKVPQVRVLDFQKVKLKERQEAEKMFKGKRGAQLAKDIARRSKTFNPGAGLPTDKKKGGPSPGDVEAIKNAIANASTLAEVERLKGLLQSGQIPGRERRSGPTDDGEEEMEEDTVTNGS [S99N]

# Variants of: B2
# Conditions: with creb3_human CREB3, O43889
row,effect of a mutation on the interaction,Variant
1,with no effect,MAAGLRKRGRSGSAAQAEGLCKQWLQRAWQERRLLLREPRYTLLVAACLCLAEVGITFWVIHRVAYTEIDWKAYMAEVEGVINGTYDYTQLQGDTGPLVYPAGFVYVFMGLYYATSRGTDIRMAQNIFAVLYLATLLLVFLIYHQTCKVPPFVFFFMCCASYRVHSIFVLRLFNDPVAMVLLFLSINLLLAQRWGWGCCFFSLAVSVKMNVLLFAPGLLFLLLTQFGFRGALPKLGICAGLQVVLGLPFLLENPSGYLSRSFDLGRQFLFHWTVNWRFLPEALFLHRAFHLALLTAHLTLLLLFALCRWHRTGESILSLLRDPSKRKVPPQPLTPNQIVSTLFTSNFIGICFSRSLHYQFYVWYFHTLPYLLWAMPARWLTHLLRLLVLGLIELSWNTYPSTSCSSAALHICHAVILLQLWLGPQPFPKSTQHSKKAH [I107V]

# Variants of: B3
# Conditions: with cc136_human CCDC136, Q96JN2
# Sequence of cc136_human CCDC136, Q96JN2 (Q96JN2 whole entry): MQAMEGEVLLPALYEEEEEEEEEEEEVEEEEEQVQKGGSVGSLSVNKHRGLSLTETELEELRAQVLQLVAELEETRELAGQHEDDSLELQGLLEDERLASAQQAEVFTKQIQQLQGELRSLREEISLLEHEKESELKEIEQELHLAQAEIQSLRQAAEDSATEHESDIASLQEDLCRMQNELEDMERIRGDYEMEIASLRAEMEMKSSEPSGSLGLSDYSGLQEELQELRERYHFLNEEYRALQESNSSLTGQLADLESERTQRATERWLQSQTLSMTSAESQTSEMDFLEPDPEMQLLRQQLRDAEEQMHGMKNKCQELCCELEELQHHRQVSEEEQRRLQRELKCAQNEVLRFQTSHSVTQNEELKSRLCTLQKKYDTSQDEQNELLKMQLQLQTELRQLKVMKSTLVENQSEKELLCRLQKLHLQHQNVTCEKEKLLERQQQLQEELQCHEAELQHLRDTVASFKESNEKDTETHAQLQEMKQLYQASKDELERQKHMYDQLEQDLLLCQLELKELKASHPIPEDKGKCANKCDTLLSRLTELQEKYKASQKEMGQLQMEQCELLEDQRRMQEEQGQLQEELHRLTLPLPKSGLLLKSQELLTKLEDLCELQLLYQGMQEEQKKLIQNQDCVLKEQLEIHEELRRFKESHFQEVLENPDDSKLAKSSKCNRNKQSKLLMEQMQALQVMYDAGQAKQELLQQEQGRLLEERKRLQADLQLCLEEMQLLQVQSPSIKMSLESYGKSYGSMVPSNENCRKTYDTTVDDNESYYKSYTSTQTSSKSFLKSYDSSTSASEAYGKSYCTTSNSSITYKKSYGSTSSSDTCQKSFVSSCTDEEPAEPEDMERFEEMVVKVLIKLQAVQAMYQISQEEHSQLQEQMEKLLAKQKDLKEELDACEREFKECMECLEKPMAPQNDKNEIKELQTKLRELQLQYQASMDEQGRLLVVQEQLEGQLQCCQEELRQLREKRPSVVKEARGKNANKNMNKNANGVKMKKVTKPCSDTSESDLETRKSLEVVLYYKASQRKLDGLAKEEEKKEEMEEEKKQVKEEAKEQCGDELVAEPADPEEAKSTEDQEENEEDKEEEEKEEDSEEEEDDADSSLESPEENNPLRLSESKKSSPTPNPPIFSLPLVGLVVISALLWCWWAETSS
row,effect of a mutation on the interaction,Variant
1,disrupting interaction strength,MNILPKKSWHVRNKDNVARVRRDEAQAREEEKERERRVLLAQQEARTEFLRKKARHQNSLPELEAAEAGAPGSGPVDLFRELLEEGKGVIRGNKEYKEEKRQEKERQEKALGILTYLGQSAAEAQTQPPWYQLPPGRGGPPPGPAPDEKIKSRLDPLREMQKHLGKKRQHGGDEGSRSRKEKEGSEKQRPKEPPSLDQLRAERLRREAAERSRAEALLARVQGRALQEGQPEEDETDDRRRRYNSQFNPQLARRPCQQDPHLTH [R256C]

# Variants of: B3
# Conditions: with cep70_human CEP70, Q8NHQ1
# Sequence of cep70_human CEP70, Q8NHQ1 (Q8NHQ1 whole entry): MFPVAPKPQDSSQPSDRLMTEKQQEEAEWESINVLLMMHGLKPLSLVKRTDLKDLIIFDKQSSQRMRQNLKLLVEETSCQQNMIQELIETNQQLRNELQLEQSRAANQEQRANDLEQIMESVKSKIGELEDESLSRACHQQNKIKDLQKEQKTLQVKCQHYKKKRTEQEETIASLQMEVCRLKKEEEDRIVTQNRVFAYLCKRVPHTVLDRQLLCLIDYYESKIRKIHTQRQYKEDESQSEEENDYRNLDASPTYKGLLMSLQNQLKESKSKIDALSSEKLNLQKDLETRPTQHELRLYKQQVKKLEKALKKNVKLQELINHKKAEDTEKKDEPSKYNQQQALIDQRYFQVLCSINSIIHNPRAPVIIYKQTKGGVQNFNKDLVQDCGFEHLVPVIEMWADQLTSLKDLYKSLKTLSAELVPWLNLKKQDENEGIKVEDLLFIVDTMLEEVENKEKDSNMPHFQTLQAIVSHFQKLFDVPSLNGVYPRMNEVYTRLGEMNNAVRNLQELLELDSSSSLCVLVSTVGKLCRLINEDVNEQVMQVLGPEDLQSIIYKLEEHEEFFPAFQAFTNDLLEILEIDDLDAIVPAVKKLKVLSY
row,effect of a mutation on the interaction,Variant
1,with no effect,MNILPKKSWHVRNKDNVARVRRDEAQAREEEKERERRVLLAQQEARTEFLRKKARHQNSLPELEAAEAGAPGSGPVDLFRELLEEGKGVIRGNKEYQEEKRQEKERQEKALGILTYLGQSAAEAQTQPPWYQLPPGRGGPPPGPAPDEKIKSRLDPLREMQKHLGKKRQHGGDEGSRSRKEKEGSEKQRPKEPPSLDQLRAERLRREAAERSRAEALLARVQGRALQEGQPEEDETDDRRRRYNSQFNPQLARRPRQQDPHLTH [K97Q]

# Variants of: B3
# Conditions: with trim1_human MID2, Q9UJV3
# Sequence of trim1_human MID2, Q9UJV3 (Q9UJV3 whole entry): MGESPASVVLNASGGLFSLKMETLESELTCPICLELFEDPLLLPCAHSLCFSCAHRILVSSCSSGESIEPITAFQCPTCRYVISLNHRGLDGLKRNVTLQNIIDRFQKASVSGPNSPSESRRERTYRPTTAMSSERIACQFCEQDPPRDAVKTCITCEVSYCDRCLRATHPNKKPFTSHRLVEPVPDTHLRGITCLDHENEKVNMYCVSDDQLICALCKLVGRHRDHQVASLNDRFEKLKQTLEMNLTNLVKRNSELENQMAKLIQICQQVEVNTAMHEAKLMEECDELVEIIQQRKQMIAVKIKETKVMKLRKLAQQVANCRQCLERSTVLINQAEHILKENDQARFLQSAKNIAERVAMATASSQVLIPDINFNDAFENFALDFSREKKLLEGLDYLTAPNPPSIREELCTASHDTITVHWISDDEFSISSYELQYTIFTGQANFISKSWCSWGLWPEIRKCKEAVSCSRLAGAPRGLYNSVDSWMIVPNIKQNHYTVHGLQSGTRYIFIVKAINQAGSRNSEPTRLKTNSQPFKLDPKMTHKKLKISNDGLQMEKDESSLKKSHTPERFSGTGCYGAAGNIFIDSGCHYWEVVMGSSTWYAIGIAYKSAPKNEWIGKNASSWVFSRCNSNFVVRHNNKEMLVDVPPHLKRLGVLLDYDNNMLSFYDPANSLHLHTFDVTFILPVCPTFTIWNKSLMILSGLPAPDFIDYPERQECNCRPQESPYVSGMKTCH
row,effect of a mutation on the interaction,Variant
1,with no effect,MNILPKKSWHVRNKDNVARVRRDEAQAREEEKERERRVLLAQQEARTEFLRKKARHQNSLPELEAAEAGAPGSGPVDLFRELLEEGKGVIRGNKEYQEEKRQEKERQEKALGILTYLGQSAAEAQTQPPWYQLPPGRGGPPPGPAPDEKIKSRLDPLREMQKHLGKKRQHGGDEGSRSRKEKEGSEKQRPKEPPSLDQLRAERLRREAAERSRAEALLARVQGRALQEGQPEEDETDDRRRRYNSQFNPQLARRPRQQDPHLTH [K97Q]

# Variants of: B3
# Conditions: with rop1a_human ROPN1, Q9HAT0
# Sequence of rop1a_human ROPN1, Q9HAT0 (Q9HAT0 whole entry): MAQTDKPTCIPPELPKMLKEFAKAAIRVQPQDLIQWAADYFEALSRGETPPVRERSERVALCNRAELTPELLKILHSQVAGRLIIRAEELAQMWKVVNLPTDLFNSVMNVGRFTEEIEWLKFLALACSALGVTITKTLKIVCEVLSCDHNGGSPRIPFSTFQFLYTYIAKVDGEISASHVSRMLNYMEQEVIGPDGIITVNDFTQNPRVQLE
row,effect of a mutation on the interaction,Variant
1,with no effect,MNILPKKSWHVRNKDNVARVRRDEAQAREEEKERERRVLLAQQEARTEFLRKKARHQNSLPELEAAEAGAPGSGPVDLFRELLEEGKGVIRGNKEYQEEKRQEKERQEKALGILTYLGQSAAEAQTQPPWYQLPPGRGGPPPGPAPDEKIKSRLDPLREMQKHLGKKRQHGGDEGSRSRKEKEGSEKQRPKEPPSLDQLRAERLRREAAERSRAEALLARVQGRALQEGQPEEDETDDRRRRYNSQFNPQLARRPRQQDPHLTH [K97Q]

# Variants of: B3
# Conditions: with ldoc1_human LDOC1, O95751
# Sequence of ldoc1_human LDOC1, O95751 (O95751 whole entry): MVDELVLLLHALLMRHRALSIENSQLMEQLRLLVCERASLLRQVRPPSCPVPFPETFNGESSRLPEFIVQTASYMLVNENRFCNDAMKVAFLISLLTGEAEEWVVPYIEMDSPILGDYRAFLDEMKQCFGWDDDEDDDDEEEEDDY
row,effect of a mutation on the interaction,Variant
1,with no effect,MNILPKKSWHVRNKDNVARVRRDEAQAREEEKERERRVLLAQQEARTEFLRKKARHQNSLPELEAAEAGAPGSGPVDLFRELLEEGKGVIRGNKEYQEEKRQEKERQEKALGILTYLGQSAAEAQTQPPWYQLPPGRGGPPPGPAPDEKIKSRLDPLREMQKHLGKKRQHGGDEGSRSRKEKEGSEKQRPKEPPSLDQLRAERLRREAAERSRAEALLARVQGRALQEGQPEEDETDDRRRRYNSQFNPQLARRPRQQDPHLTH [K97Q]

# Variants of: B4
# Conditions: with grb2_human GRB2, P62993
row,effect of a mutation on the interaction,Variant
1,disrupting interaction strength,MSDHGDVSLPPEDRVRALSQLGSAVEVNEDIPPRRYFRSGVEIIRMASIYSEEGNIEHAFILYNKYITLFIEKLPKHRDYKSAVIPEKKDTVKKLKEIAFPKAEELKAELLKRYTKEYTEYNEEKKKEAEELARNMAIQQELEKEKQRVAQQKQQQLEQEQFHAFEKMIRNQELEKERLKIVQEFGKVDPGLGGPLVPDLEKPSLDVFPTLTVSSIQPSDCHTTVRPAKPPVVDRSLKPGALSNSESIPTIDGLRHVVVPGRLCPQFLQLASANTARGVETCGILCGKLMRNEFTITHVLIPKQSAGSDYCNTENEEELFLIQDQQGLITLGWIHTHPTQTAFLSSVDLHTHCSYQMMLPESVAIVCSPKFQETGFFKLTDHGLEEISSCRQKGFHPHSKDPPLFCSCSHVTVVDRAVTITDLR [E167K]
